Reference: IntAct's records for PubMed 28486698

B1: THAP domain-containing protein 1 (Homo sapiens), Q9NVV9 (parent)
chain: MVQSCSAYGCKNRYDKDKPVSFHKFPLTRPSLCKEWEAAVRRKNFKPTKYSSICSEHFTPDCFKRECNNKLLKENAVPTIFLCTEPHDKKEDLLEPQEQLPPPPLPPPVSQVDAAIGLLMPPLQTPVNLSVFCDHNYTVEDTMHQRKRIHQLEQQVEKLRKKLKTAQQRCRRQERQLEKLKEVVHFQKEKDDVSERGYVILPNDYFEIVEVPA

Variants of: B1
Conditions: with hcfc1_human HCFC1, P51610
hcfc1_human HCFC1, P51610, sequence (P51610 whole entry): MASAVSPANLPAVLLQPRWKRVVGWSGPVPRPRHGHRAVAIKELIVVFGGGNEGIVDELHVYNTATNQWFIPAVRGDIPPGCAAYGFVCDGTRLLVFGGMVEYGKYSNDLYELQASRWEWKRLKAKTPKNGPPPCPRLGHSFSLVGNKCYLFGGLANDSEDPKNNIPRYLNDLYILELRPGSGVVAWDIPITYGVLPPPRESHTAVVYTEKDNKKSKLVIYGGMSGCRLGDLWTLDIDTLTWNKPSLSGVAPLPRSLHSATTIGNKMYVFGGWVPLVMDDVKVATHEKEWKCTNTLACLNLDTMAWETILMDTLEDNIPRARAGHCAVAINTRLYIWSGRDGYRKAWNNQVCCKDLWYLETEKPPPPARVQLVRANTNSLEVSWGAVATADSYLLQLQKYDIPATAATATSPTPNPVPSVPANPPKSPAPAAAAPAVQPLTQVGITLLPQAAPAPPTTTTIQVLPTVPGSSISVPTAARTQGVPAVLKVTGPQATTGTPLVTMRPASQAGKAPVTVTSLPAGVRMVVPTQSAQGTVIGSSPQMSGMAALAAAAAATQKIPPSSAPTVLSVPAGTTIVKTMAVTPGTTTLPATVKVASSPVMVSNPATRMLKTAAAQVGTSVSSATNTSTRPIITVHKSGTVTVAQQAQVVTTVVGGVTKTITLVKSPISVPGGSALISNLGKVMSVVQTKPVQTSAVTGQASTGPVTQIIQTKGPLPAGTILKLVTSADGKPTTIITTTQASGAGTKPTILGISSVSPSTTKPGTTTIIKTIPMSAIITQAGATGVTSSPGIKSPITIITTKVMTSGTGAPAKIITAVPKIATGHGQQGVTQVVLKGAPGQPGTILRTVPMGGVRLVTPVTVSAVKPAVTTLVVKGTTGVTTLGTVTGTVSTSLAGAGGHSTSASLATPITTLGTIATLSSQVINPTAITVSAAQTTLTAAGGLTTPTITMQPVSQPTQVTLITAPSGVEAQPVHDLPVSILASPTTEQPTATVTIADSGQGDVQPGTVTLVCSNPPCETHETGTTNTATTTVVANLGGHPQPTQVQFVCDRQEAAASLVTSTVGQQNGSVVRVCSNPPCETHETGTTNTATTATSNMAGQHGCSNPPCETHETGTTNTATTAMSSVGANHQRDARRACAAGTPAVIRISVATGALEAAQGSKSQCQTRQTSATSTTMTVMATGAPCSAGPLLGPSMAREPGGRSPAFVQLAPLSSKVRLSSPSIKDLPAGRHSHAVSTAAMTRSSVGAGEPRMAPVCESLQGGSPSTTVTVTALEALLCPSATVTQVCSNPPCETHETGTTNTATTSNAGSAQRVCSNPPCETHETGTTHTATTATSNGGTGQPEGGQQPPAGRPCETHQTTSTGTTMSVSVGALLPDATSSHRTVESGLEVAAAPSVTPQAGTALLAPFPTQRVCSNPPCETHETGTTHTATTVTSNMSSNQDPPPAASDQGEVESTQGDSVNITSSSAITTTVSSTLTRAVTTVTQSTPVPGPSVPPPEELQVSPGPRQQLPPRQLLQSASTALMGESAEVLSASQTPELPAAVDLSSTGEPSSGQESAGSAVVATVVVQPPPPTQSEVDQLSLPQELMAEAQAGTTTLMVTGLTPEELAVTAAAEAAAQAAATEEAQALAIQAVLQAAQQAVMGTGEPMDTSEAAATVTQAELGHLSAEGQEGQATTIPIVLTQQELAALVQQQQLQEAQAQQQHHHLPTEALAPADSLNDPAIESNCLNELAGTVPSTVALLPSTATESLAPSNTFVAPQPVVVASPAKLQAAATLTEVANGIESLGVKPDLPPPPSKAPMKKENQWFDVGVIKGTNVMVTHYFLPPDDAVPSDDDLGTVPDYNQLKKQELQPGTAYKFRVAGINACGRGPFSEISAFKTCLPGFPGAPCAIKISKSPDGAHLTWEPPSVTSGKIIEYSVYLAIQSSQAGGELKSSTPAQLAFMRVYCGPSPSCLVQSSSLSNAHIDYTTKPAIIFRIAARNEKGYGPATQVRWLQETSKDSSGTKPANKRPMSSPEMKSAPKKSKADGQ

Row | effect of a mutation on the interaction | Variant
1 | disrupting interaction strength | Y137C
2 | disrupting interaction strength | N136S
3 | disrupting interaction strength | N136K

Variants of: B1
Conditions: with hcfc1_human HCFC1, P51610
Remark: another data set of the same source

Row | effect of a mutation on the interaction | Variant
4 | decreasing interaction strength | N136S
